Assay results from patent US20180339041A1 (Kyowa Kirin, published 2018).

Molecular target: T1, C-terminally FLAG-tagged human Gas6 recombinant protein (hGas6-F) (human, UniProt Q14393 31-678, gamma-carboxylated glutamic acid residues in the Gla domain (producer cells co-express rat VKOR and human GGCX); positions not given)
T1 construct: also called human Gas6-F; human Gas6 protein
T1 sequence: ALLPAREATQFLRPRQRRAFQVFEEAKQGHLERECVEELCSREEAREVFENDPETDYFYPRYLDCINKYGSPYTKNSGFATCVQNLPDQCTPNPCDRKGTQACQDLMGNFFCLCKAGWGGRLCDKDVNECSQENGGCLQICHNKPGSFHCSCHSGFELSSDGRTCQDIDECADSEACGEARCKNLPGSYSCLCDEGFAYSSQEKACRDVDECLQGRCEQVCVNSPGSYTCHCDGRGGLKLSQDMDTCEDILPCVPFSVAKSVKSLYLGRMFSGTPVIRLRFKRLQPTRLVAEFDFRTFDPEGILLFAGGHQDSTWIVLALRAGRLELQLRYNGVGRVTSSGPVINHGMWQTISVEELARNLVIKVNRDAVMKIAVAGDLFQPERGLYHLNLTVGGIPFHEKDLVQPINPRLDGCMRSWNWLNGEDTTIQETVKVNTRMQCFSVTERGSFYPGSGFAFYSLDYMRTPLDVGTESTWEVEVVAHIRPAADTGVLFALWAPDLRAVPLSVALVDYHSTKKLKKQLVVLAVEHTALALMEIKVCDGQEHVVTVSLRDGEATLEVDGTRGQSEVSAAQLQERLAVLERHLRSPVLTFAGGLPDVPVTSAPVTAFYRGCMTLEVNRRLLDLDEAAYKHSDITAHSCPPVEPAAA
Experiment: SPR Biacore T100, captured antibody, Gas6 analyte, first test
Method: An anti-human IgG antibody was immobilized on a CM5 sensor chip (manufactured by GE Healthcare Japan Corp.) using Human Antibody Capture Kit (manufactured by GE Healthcare Japan Corp.) according to the attached manual. Each test antibody adjusted to 1 μg/mL was added for 10 seconds at a flow rate of 10 μL/min to flow cells. […] The measurement was performed by the […] method. The obtained sensorgram was analyzed using Bia Evaluation Software (manufactured by GE Healthcare Japan Corp.), and the kinetic constant of each antibody was calculated.

Binder	Kd [nM]	koff [s⁻¹]	kon [M⁻¹ s⁻¹]
hzKM5320 LV5HV3a antibody (antibody, V domains shown, Humanized; variant human IgG4 constant region (EU S228P, L235E, R409K), human kappa; also called A-21) VH: QVQLVQSGSELKKPGASVKVSCKASGYTFTNYGMNWVRQAPGQGLKWMGWINTETGEPTYSDDFKGRFVFSLDTSVSTAYLQISSLKAEDTATYFCAREDGYYGTLDYWGQGTTVTVSS VL: DIVMTQSPDSLAVSLGERVTINCKASQSVSNDVAWYQQKPGQSPKVLIYYASNRYTGVPDRFSGSGSGTDFTFTISSVQAEDVAVYFCQQDYSSPWTFGQGTKLEIK	< 2.3	0.000177	> 77100
hzKM5320 LV2bHV0 antibody (antibody, V domains shown, Humanized; variant human IgG4 constant region (EU S228P, L235E, R409K), human kappa; also called A-06) VH: QVQLVQSGSELKKPGASVKVSCKASGYTFTNYGMNWVRQAPGQGLEWMGWINTETGEPTYSDDFKGRFVFSLDTSVSTAYLQISSLKAEDTAVYYCAREDGYYGTLDYWGQGTTVTVSS VL: DVVMTQSPDSLAVSAGERVTINCKASQSVSNDVAWYQQKPGQSPKLLIYYASNRYTGVPDRFSGSGSGTDFTFTISSLQAEDVAVYYCQQDYSSPWTFGQGTKLEIK	< 14.4	0.00104	> 72600
hzKM5320 LV0HV8 antibody (antibody, V domains shown, Humanized; variant human IgG4 constant region (EU S228P, L235E, R409K), human kappa; also called A-10) VH: QIQLVQSGPELKKPGASVKISCKASGYTFTNYGMNWVKQAPGQGLKWMGWINTETGEPTYSDDFKGRFVFSLDTSVTTAYLQISSLKAEDTATYFCAREDGYYGTLDYWGQGTTVTVSS VL: DVVMTQSPDSLAVSLGERVTINCKASQSVSNDVAWYQQKPGQSPKLLIYYASNRYTGVPDRFSGSGSGTDFTLTISSLQAEDVAVYYCQQDYSSPWTFGQGTKLEIK	< 9.79	0.000714	> 72900
hzKM5320 LV1bHV8 antibody (antibody, V domains shown, Humanized; variant human IgG4 constant region (EU S228P, L235E, R409K), human kappa; also called A-12) VH: QIQLVQSGPELKKPGASVKISCKASGYTFTNYGMNWVKQAPGQGLKWMGWINTETGEPTYSDDFKGRFVFSLDTSVTTAYLQISSLKAEDTATYFCAREDGYYGTLDYWGQGTTVTVSS VL: DVVMTQSPDSLAVSLGERVTINCKASQSVSNDVAWYQQKPGQSPKLLIYYASNRYTGVPDRFSGSGSGTDFTLTISSVQAEDVAVYYCQQDYSSPWTFGQGTKLEIK	< 11	0.000856	> 77900
hzKM5320 LV1aHV8 antibody (antibody, V domains shown, Humanized; variant human IgG4 constant region (EU S228P, L235E, R409K), human kappa; also called A-11) VH: QIQLVQSGPELKKPGASVKISCKASGYTFTNYGMNWVKQAPGQGLKWMGWINTETGEPTYSDDFKGRFVFSLDTSVTTAYLQISSLKAEDTATYFCAREDGYYGTLDYWGQGTTVTVSS VL: DVVMTQSPDSLAVSLGERVTINCKASQSVSNDVAWYQQKPGQSPKLLIYYASNRYTGVPDRFSGSGSGTDFTLTISSLQAEDVAVYFCQQDYSSPWTFGQGTKLEIK	< 9.64	0.000694	> 72000
hzKM5320 LV2aHV0 antibody (antibody, V domains shown, Humanized; variant human IgG4 constant region (EU S228P, L235E, R409K), human kappa; also called A-05) VH: QVQLVQSGSELKKPGASVKVSCKASGYTFTNYGMNWVRQAPGQGLEWMGWINTETGEPTYSDDFKGRFVFSLDTSVSTAYLQISSLKAEDTAVYYCAREDGYYGTLDYWGQGTTVTVSS VL: DVVMTQSPDSLAVSLGERVTINCKASQSVSNDVAWYQQKPGQSPKLLIYYASNRYTGVPDRFSGSGSGTDFTLTISSVQAEDVAVYFCQQDYSSPWTFGQGTKLEIK	< 15.2	0.00105	> 69100
hzKM5320 LV2aHV8 antibody (antibody, V domains shown, Humanized; variant human IgG4 constant region (EU S228P, L235E, R409K), human kappa; also called A-13) VH: QIQLVQSGPELKKPGASVKISCKASGYTFTNYGMNWVKQAPGQGLKWMGWINTETGEPTYSDDFKGRFVFSLDTSVTTAYLQISSLKAEDTATYFCAREDGYYGTLDYWGQGTTVTVSS VL: DVVMTQSPDSLAVSLGERVTINCKASQSVSNDVAWYQQKPGQSPKLLIYYASNRYTGVPDRFSGSGSGTDFTLTISSVQAEDVAVYFCQQDYSSPWTFGQGTKLEIK	< 10.2	0.0008	> 78600
hzKM5320 LV1aHV0 antibody (antibody, V domains shown, Humanized; variant human IgG4 constant region (EU S228P, L235E, R409K), human kappa; also called A-03) VH: QVQLVQSGSELKKPGASVKVSCKASGYTFTNYGMNWVRQAPGQGLEWMGWINTETGEPTYSDDFKGRFVFSLDTSVSTAYLQISSLKAEDTAVYYCAREDGYYGTLDYWGQGTTVTVSS VL: DVVMTQSPDSLAVSLGERVTINCKASQSVSNDVAWYQQKPGQSPKLLIYYASNRYTGVPDRFSGSGSGTDFTLTISSLQAEDVAVYFCQQDYSSPWTFGQGTKLEIK	< 12.6	0.000829	> 65700
